Experimental data published in article PMC11305399, “FLT3/CD99 Bispecific Antibody–Based Nanoparticles for Acute Myeloid Leukemia” (Cancer Research Communications, 2024).

Molecular target: Cluster of differentiation 99 (CD99) (Homo sapiens (Human)., UniProt P14209)
Test: cell-based or functional assay

Cluster of differentiation 99 (CD99), sequence (P14209 23-185): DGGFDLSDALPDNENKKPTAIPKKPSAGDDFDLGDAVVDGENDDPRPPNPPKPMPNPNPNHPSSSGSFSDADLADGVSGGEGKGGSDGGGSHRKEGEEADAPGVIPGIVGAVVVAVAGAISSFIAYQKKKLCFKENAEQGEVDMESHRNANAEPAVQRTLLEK

B1: CD99-A192 (α-CD99 scFv fused to the amino-terminus of the elastin-like polypeptide A192) (scFv, V domains shown)
VH: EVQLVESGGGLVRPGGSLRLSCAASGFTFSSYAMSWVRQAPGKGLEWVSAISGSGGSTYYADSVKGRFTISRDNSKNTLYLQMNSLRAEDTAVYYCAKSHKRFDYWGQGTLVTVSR
VL: SSELTQDPAVSVALGQTVRITCQGDSLRSYYASWYQQKPGQAPVLVIYGKNNRPSGIPDRFSGSSSGNTASLTITGAQAEDEADYYCNSSFPRTSSVVFGGGTKLTVL
- IC50 of cell viability (CCK-8) of MV4-11 cells, 72 hours: 0.4 µmol/L
- phospho-SRC in MV4-11 cells at 24 hours (western blot), 25 μmol/L CD99-A192 vs. A192: 11 fold
